These results are taken from PMC11882435.

This data set addresses RsmA (Pseudomonas aeruginosa) (UniProt O69078). In words: EMSA. Conditions: Filter binding: 10 mM Tris-HCl pH 7.5, 100 mM KCl, 10 mM MgCl2, 10 mM DTT, 10 ug/mL heparin, RNase inhibitor, 0.5 nM RNA, 37 C 30 min; Hill coefficient 2. In general terms: A gel shift assay detects complexes by their altered migration in electrophoresis.

Sequence of RsmA (Pseudomonas aeruginosa) (O69078 whole entry): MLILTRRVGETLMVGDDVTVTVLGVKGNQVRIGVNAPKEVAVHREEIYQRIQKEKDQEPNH

In general, Kd refers to the equilibrium constant for the complex coming apart. rhlI leader: the Kd was found to be 20.9 nM.
